Experimental data taken from IntAct's records for PubMed 16083711.

B1: DNA mismatch repair protein Mlh1 (Homo sapiens), P40692 (parent)
chain: MSFVAGVIRRLDETVVNRIAAGEVIQRPANAIKEMIENCLDAKSTSIQVIVKEGGLKLIQIQDNGTGIRKEDLDIVCERFTTSKLQSFEDLASISTYGFRGEALASISHVAHVTITTKTADGKCAYRASYSDGKLKAPPKPCAGNQGTQITVEDLFYNIATRRKALKNPSEEYGKILEVVGRYSVHNAGISFSVKKQGETVADVRTLPNASTVDNIRSIFGNAVSRELIEIGCEDKTLAFKMNGYISNANYSVKKCIFLLFINHRLVESTSLRKAIETVYAAYLPKNTHPFLYLSLEISPQNVDVNVHPTKHEVHFLHEESILERVQQHIESKLLGSNSSRMYFTQTLLPGLAGPSGEMVKSTTSLTSSSTSGSSDKVYAHQMVRTDSREQKLDAFLQPLSKPLSSQPQAIVTEDKTDISSGRARQQDEEMLELPAPAEVAAKNQSLEGDTTKGTSEMSEKRGPTSSNPRKRHREDSDVEMVEDDSRKEMTAACTPRRRIINLTSVLSLQEEINEQGHEVLREMLHNHSFVGCVNPQWALAQHQTKLYLLNTTKLSEELFYQILIYDFANFGVLRLSEPAPLFDLAMLALDSPESGWTEEDGPKEGLAEYIVEFLKKKAEMLADYFSLEIDEEGNLIGLPLLIDNYVPPLEGLPIFILRLATEVNWDEEKECFESLSKECAMFYSIRKQYISEESTLSGQQSEVPGSIPNSWKWTVEHIVYKALRSHILPPKHFTEDGNILQLANLPDLYKVFERC
partner: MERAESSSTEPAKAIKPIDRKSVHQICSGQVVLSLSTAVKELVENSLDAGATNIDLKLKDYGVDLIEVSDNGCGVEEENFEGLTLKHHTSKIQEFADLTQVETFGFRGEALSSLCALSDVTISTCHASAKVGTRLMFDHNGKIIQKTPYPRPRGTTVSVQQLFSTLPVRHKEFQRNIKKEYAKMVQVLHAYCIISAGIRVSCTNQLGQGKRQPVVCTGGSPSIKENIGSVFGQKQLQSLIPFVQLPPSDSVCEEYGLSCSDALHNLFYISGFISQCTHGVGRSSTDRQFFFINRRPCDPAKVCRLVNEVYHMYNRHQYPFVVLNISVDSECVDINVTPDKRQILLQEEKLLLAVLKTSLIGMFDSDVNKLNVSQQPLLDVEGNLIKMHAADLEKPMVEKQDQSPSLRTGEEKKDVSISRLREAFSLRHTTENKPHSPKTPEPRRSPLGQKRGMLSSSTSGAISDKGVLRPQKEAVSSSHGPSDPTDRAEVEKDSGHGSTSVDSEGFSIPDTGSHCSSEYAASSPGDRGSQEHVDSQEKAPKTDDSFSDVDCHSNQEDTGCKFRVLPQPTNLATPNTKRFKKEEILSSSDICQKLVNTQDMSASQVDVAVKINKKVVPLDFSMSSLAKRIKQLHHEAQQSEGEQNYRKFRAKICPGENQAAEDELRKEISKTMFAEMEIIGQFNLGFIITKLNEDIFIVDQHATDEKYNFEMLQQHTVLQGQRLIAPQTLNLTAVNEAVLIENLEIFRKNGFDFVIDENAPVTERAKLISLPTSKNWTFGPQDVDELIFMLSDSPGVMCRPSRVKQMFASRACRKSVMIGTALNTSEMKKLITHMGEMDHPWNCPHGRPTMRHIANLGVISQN

Variants of: B1
Conditions: with pms2_human PMS2, P54278

| Variant | effect of a mutation on the interaction |
| --- | --- |
| F80V | with no effect |
| L155R | with no effect |
| S247P | with no effect |
| V213M | with no effect |
| H329P | with no effect |
| P28L | with no effect |
| K84E | with no effect |
| G67R | with no effect |
| A29S | with no effect |

Continued, values first:

| effect of a mutation on the interaction | Variant |
| --- | --- |
| with no effect | S93G |
| with no effect | K443Q |
| with no effect | C77R |
| with no effect | I107R |
| with no effect | I219V |
